Substrate: O=[N+]([O-])c1ccc(OP(=O)(O)O)cc1
Experiment: purified protein
Details: pH 8.0; 37.0 °C

B1: RsbU phosphatase domain (Mycobacterium tuberculosis H37Rv) (protein)
chain: AAGGDWFDALALGDRLVLVVGDVVGHGVEAAAVMSQLRTALRMQISAGYTVVEALEAVDRFHKQVPGSKSATMCVGSLDFTSGEFQYCTAGHPPPLLVTADASARYVEPTGAGPLGSGTGFPVRSEVLNIGDAILFYTDGLIERPGRPLEASTAEFADLAASIASGSGGFVLDAPARPIDRLCSDTLELLLRSTGYNDDVTLLAMQRR
Km: 7.47 ± 1.22 mM | Vmax: 0.07 µmol/min/mg

B2: PAS+phosphatase fusion protein (Mycobacterium tuberculosis H37Rv) (protein)
chain: MAAEMDWDKTVGAAEDVRRIFEHIPAILVGLEGPDHRFVAVNAAYRGFSPLLDTVGQPAREVYPELEGQQIYEMLDRVYQTGEPQSGSEWRLQTDYDGSGVEERYFDFVVTPRRRADGSIEGVQLIVDDVTSRVRARQAAEARVEELSERYRNVRDSATVMQQALLAASVPVVPGADIAAEYLVAAEDTAAGGDWFDALALGDRLVLVVGDVVGHGVEAAAVMSQLRTALRMQISAGYTVVEALEAVDRFHKQVPGSKSATMCVGSLDFTSGEFQYCTAGHPPPLLVTADASARYVEPTGAGPLGSGTGFPVRSEVLNIGDAILFYTDGLIERPGRPLEASTAEFADLAASIASGSGGFVLDAPARPIDRLCSDTLELLLRSTGYNDDVTLLAMQRR
Km: 2.54 ± 0.35 mM | Vmax: 0.07 µmol/min/mg

From article PMC3662962
